Measured values taken from the Human Domainome abundance scans (Beltran et al. 2025).

B1: Pituitary-specific positive transcription factor 1, residues 130 to 198; numbered along this chain, P28069 (parent)
chain: RELEKFANEFKVRRIKLGYTQTNVGEALAAVHGSEFSQTTICRFENLQLSFKNACKLKAILSKWLEEAE

Variants of: B1
Assay: abundance fitness (aPCA) (normalised: wild type 0, dead -1); higher = more abundant; growth selection in yeast, the domain comes from the species named
Conditions: Homo sapiens

Abundance fitness: each site, then its substitutions
S34: Q 0.057 | T -0.139 | H 0.039 | I -0.171 | F -0.387 | R -0.038 | D -0.015 | N 0.107 | K 0.09 | Y -0.373 | V -0.084 | W -0.562 | P 0.133 | L -0.253 | M -0.188 | A -0.079 | E 0.019 | C -0.431
G33: I -1 | C -0.791 | P -0.393 | S -0.75 | M -0.792 | A -0.555 | K -0.85 | F -0.934 | Y -0.96 | E -0.856 | H -0.536 | L -1.08 | Q -0.212 | T -0.892 | R -0.835 | D -0.721
Q38: T 0.277
T40: Q -0.211 | E -0.193 | G -0.528 | W -0.624 | F -0.911 | L -0.003 | H -0.403 | D 0.308 | V -0.314 | M -0.431 | I -0.642 | S -0.348 | N -0.71 | A -0.235 | C -0.512
V24: L -0.361 | R -0.931 | Y -0.767 | M -0.851 | I -0.545 | A -0.728 | N -0.581 | T -0.625 | K -0.846 | S -0.681 | C -0.337 | F -0.92 | G -0.753
N23: I -0.539 | L -0.478 | A 0.267 | E 0.352 | F 0.145 | M 0.392 | S 0.086 | V -0.27 | P -0.992 | Q 0.347 | Y 0.008 | H 0 | R -0.053 | C -0.184
A29: P -0.89 | Y -0.609 | T 0.063 | Q -0.112 | K -0.202 | S -0.119 | C -0.361 | G -0.416 | N -0.595 | V -0.87 | F -0.509 | R -0.127 | M -0.402 | L -0.829 | I -0.492 | H -0.079 | W -0.932
T20: Y -1.17 | H -1.05 | L -0.683 | S -0.044 | P -0.942 | V -0.789 | N -0.384 | I -0.951 | Q -0.911 | R -0.941 | W -1.12
G25: T -0.325 | R -0.813 | K -0.797 | N -0.911 | M -0.468 | D -0.647 | S 0.198 | I -0.184 | F -0.285 | Y 0.101 | A 0.396 | L -0.692 | P -0.776 | V 0.085 | W -0.001 | Q -0.171 | C 0.005
C42: R 0.142 | W -0.101 | V -0.336 | Y -0.243 | K 0.148 | D 0.325 | T -0.02 | H -0.001 | N 0.092 | F -0.348 | P -0.761 | M 0.311 | G -0.029 | A 0.21
S37: C -0.281 | R -0.743 | I -0.697 | V -0.833 | T -0.063 | D 0.199 | Q -0.736 | A -0.607 | F -0.901 | W -0.925 | E -0.568 | H -0.689 | Y -0.508 | L -0.682 | M -0.823 | P -0.544 | N 0.117
F36: L -0.393 | I 0.128 | C -0.526 | T -0.512 | Q -0.517 | A -0.496 | N -0.758 | P -0.702 | K -0.744 | M -0.31 | W -0.229 | H -0.747 | G -1.05
L28: A -0.799 | I -0.276 | S -0.732 | Y -0.711 | T -0.226 | E -0.718 | D -0.162 | G -0.715 | P -0.853 | N -0.863 | M -0.824 | R -0.554 | C -0.889
Q21: F -0.932 | S -0.506 | E -0.549 | N -0.766 | D -0.674 | R -0.288 | G -1.07 | I -0.246 | K -0.702 | A -0.16 | Y -0.325 | W -0.592 | P -0.275 | L -0.138 | H -0.164 | V -0.278 | M -0.394 | T -0.028
R43: M 0.234 | I -0.888 | P -0.855 | E 0.119 | D 0.112 | Q 0.11 | A 0.12 | C -0.559 | F -0.289 | S -0.416 | L -0.181 | G -0.388 | N -0.085
I41: C -0.444 | W -0.502 | S -0.866 | M -0.446 | V -0.523 | L -0.541 | P -0.897 | H -0.56 | K -0.842 | G -0.976 | T -0.892 | N -0.88 | D -0.758 | Q -0.785
E26: C -0.476 | W -0.493 | N -0.083 | A -0.332 | V -0.461 | F -0.849 | Q -0.527 | D 0.205 | H -0.486 | G -0.771
A27: G -0.739 | L -0.315 | Y -0.144 | K -0.483 | C -0.289 | Q 0.016 | F -0.437 | T -0.18 | W 0.053 | S -0.106 | D -0.221 | V -0.662 | P -0.868 | N -0.74 | E 0.137 | I -0.166
T39: L -0.242 | K 0.052 | D 0.118 | Q 0.13 | P -0.387 | I -0.312 | R -0.096 | G -0.13 | E 0.255 | V -0.113 | S -0.065 | M -0.147 | Y -0.447 | C -1.07 | W -0.393
H32: Y 0.276
T22: S 0.106 | P -0.573 | A 0.357 | C -0.108 | V -0.328 | L -0.156 | Y -0.392 | W 0.18 | Q 0.209 | G -0.052 | M 0.08 | K 0.267 | I -0.525 | H 0.041 | E 0.491 | N -0.063
E35: P -0.381 | L -0.222 | G -0.086 | A -0.097 | V -0.306 | N -0.165 | H -0.228 | K -0.23 | D -0.144 | C -0.182 | S -0.051 | R -0.208 | F -0.262 | I -0.276 | W -0.265 | M -0.162 | Q -0.059
A30: D -0.457 | T -0.23 | Y -0.633 | N -0.219 | C -0.127 | E -0.128 | G -0.298 | K -0.008 | V -0.444 | P -0.468 | L -0.217 | S -0.138 | I -0.309 | M -0.261 | H -0.357 | R 0.042 | F -0.726
V31: R -0.053 | K 0.131 | G -0.404 | Q -0.033 | I 0.027 | F -0.34 | P -0.912 | M -0.135 | C -0.258 | N -0.389 | W -0.392 | E -0.013 | T -0.021 | D -0.462 | Y -0.339 | H -0.574 | L -0.058 | S -0.004
